For this assay, the target named is HLA-A*0201 MART-1 peptide complex on peptide-loaded K562 cells (human). Put plainly: cell-based or functional assay.

MART-1/Melan-A specific TCR DMF5 had a CD25 Fold Change (TCR-transduced CD8+ Jurkat KO cells co-cultured with peptide-loaded K562 APCs) of 235 fold, a CD69 Fold Change (TCR-transduced CD8+ Jurkat KO cells co-cultured with peptide-loaded K562 APCs) of 45 fold and an IL2 Fold Change (TCR-transduced CD8+ Jurkat KO cells co-cultured with peptide-loaded K562 APCs) of 33 fold.

These data come from patent US20230041030A1.
